According to PMC8885854, “Targeting macrophage TFEB-14-3-3 epsilon Interface by naringenin inhibits abdominal aortic aneurysm” (Cell Discovery, 2022):
Primed or numbered codes have the meaning given here. Where no end group is shown, it is not given here. [ ]: non-standard residue; d: D form. pS = N[C@@H](COP(=O)(O)O)C(=O)O; FITC′ = not defined here

B1: control phosphor-peptide (p-control peptide, MARSHpSYPAKKK) with C-terminal FITC (peptide)
peptide: MARSH[pS]YPAKKK-{FITC′}
notes: control phosphopeptide with the conventional 14-3-3 motif RSXpSXP; source: synthetic peptide
B2: phosphorylated TFEB peptide (p-TFEB peptide, LVGVTSSpSCPADLTQ) with C-terminal FITC (peptide)
peptide: LVGVTSS[pS]CPADLTQ-{FITC′}
notes: also called p-TFEB-FITC; source: synthetic peptide

Key:
[1] = biological target: T1, 14-3-3 epsilon (14-3-3ε, YWHAE) (Mus musculus, UniProt P62259); experiment: ITC with purified protein; supported by CETSA/ITDRF-CETSA in macrophage lysates and FP displacement of p-TFEB peptide (IC50 […]); type: binding
T1 construct: full-length mouse 14-3-3ε, His-tagged, from Sf9 cells
T1 sequence (P62259 1-255): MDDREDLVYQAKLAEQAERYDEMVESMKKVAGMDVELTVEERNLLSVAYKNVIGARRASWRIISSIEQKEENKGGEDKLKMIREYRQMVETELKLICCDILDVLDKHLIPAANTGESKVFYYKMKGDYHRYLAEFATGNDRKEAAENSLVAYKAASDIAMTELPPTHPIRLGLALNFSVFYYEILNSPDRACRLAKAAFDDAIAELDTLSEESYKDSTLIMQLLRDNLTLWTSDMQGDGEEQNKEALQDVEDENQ

[2] = biological target: T2, His-14-3-3ε (full-length mouse 14-3-3ε, purified) (mouse, UniProt P62259 1-255); experiment: fluorescence polarisation; direct binding: His-14-3-3ε serially diluted (1-4000 nM) against FITC-labelled peptide (10 nM solution); 25 mM HEPES pH 7.5, 100 mM NaCl, 1 mg/ml BSA, 0.05% CHAPS; 60 min at 25 °C; settings: both partners purified
T2 construct: 14-3-3 epsilon, mouse, full length; also called 14-3-3 epsilon; 14-3-3ɛ; source: Sf9 (Bac-to-Bac baculovirus), purified (Ni-NTA), at least 70% pure
T2 sequence (looked up): T1 sequence (P62259 1-255)

| Molecule | Kd [1] | Kd [2] |
| --- | --- | --- |
| O=C1C[C@@H](c2ccc(O)cc2)Oc2cc(O)cc(O)c21 [NGN, naringenin] | 30600 ± 7990 nM |  |
| B1 |  | 2.4 nM |
| B2 |  | 9.68 nM |
